Laboratory results: patent publication US20060104978A1, “Methods and compositions for PDGF-C activation and inhibition” (LUDWIG INSTITUTE FOR CANCER RESEARCH, priority 2003, published 2006)

Assays:
latent PDGF-DD = latent PDGF-DD (Homo sapiens, UniProt Q9GZP0); experiment: In vitro cleavage of recombinant latent PDGF-DD with purified tPA; type: biochemical; parameters: Recombinant His6-tagged human PDGF-CC species and full-length PDGF-DD were expressed; made in house; conditions: 0.2-20 μg/ml tPA, 4 hours at 37° C., CNBr activated fibrinogen
Description: (§1) A cotransfection assay was established to identify serine proteases able to cleave and activate latent PDGF-CC. Expression plasmids encoding the relevant enzymes and full-length PDGF-C were cotransfected into COS-1 cells, and aliquots of the conditioned media from the transfectants were subjected to SDS-PAGE and immunoblotting using antibodies to the growth factor domain of PDGF-C. […] As a specificity control, the ability of tPA and NT to use full-length PDGF-DD as the substrate in the cotransfection assay was analysed. […] One difference in the latter results, as compared with the results from the cotransfection assay, was that purified tPA generated a second intermediate species of 32 kDa using latent PDGF-CC as the substrate. It is possible that this intermediate is the result of digestion by plasmin contamination in the tPA preparation, since the size of the fragment is similar to that of plasmincleaved PDGF-CC previously reported (Li et al, 2000).
(§2) Recombinant latent PDGF-CC and PDGF-DD were digested with human tPA in 100 mM Tris-HCl pH 7.5, 0.1% Tween 20, and 0.1 mg/ml CNBr activated fibrinogen (Sigma) for 4 hours at 37° C. using 0.2-20 μg/ml tPA purified from human melanoma cells (T7776, Sigma). The digestions were analyzed by SDS-PAGE under reducing conditions and immunoblotted using affinity-purified antibodies against PDGF-C and PDGF-D, respectively (see above).

latent PDGF-CC = latent PDGF-CC (Homo sapiens, UniProt Q9NRA1); experiment: In vitro cleavage of recombinant latent PDGF-CC with purified tPA; type: biochemical; parameters: His6-tagged recombinant full-length PDGF-CC; made in house; host or cells: Sf9 insect cells, baculovirus; conditions: 0.2-20 μg/ml tPA, 4 hours at 37° C., CNBr activated fibrinogen
latent PDGF-CC, sequence (Q9NRA1 23-345): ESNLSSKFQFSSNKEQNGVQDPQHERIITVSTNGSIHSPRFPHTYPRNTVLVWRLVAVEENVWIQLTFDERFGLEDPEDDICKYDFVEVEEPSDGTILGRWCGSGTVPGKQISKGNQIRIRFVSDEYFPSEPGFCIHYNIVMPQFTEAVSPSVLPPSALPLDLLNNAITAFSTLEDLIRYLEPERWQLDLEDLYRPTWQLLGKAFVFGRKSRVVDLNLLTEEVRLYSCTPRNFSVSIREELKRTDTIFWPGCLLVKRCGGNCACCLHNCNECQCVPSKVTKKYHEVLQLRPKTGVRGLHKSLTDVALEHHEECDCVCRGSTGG
Description: as §1, §2

- cleavage of recombinant latent PDGF-DD by purified tPA (latent PDGF-DD): but not PDGF-DD, is a substrate for tPA
Substance: tPA: tissue plasminogen activator, secreted serine protease; expressed, purified from human melanoma cells or recombinant
- cleavage of recombinant latent PDGF-CC by purified tPA (latent PDGF-CC): PDGF-CC, but not PDGF-DD, is a substrate for tPA
